In patent US20130315910A1 (Xencor, published 2013):
Where a chain is given by its changes, count along the chain named. Names may count otherwise.

B1: G237N/S267E (antibody, human IgG1, kappa)
heavy: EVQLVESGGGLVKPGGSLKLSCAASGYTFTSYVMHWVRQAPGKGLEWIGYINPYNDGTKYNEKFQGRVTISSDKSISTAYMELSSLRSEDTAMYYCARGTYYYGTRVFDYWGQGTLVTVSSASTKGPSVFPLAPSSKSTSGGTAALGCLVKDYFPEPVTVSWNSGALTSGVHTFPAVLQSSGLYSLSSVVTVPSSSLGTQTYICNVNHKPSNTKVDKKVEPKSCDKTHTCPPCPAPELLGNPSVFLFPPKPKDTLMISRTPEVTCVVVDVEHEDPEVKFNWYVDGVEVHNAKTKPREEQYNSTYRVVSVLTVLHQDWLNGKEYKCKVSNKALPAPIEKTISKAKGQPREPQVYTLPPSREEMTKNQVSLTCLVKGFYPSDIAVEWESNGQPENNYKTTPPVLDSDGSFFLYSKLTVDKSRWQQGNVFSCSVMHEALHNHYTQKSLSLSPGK
light: DIVMTQSPATLSLSPGERATLSCRSSKSLQNVNGNTYLYWFQQKPGQSPQLLIYRMSNLNSGVPDRFSGSGSGTEFTLTISSLEPEDFAVYYCMQHLEYPITFGAGTKLEIKRTVAAPSVFIFPPSDEQLKSGTASVVCLLNNFYPREAKVQWKVDNALQSGNSQESVTEQDSKDSTYSLSSTLTLSKADYEKHKVYACEVTHQGLSSPVTKSFNRGEC
notes: HuAM4G7 anti-CD19 IgG1 (m1) with these Fc substitutions, EU index; copies: 2 + 2
B2: L328F (antibody, human IgG1, kappa)
heavy: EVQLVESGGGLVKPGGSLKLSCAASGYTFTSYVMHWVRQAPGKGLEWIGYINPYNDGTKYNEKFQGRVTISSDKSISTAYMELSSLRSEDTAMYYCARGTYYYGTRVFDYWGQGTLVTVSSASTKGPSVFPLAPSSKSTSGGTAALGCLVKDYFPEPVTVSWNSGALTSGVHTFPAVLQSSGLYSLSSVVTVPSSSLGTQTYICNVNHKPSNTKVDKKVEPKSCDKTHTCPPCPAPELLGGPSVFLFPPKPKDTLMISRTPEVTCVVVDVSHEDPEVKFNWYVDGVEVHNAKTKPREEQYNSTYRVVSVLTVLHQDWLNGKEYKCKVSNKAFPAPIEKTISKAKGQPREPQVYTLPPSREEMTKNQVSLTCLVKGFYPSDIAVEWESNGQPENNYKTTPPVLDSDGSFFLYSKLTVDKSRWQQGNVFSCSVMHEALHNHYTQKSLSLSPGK
light: B1 light
notes: HuAM4G7 anti-CD19 IgG1 (m1) with this Fc substitution, EU index; copies: 2 + 2
B3: L234W/H268D/L328Y (antibody, human IgG1, kappa)
heavy: EVQLVESGGGLVKPGGSLKLSCAASGYTFTSYVMHWVRQAPGKGLEWIGYINPYNDGTKYNEKFQGRVTISSDKSISTAYMELSSLRSEDTAMYYCARGTYYYGTRVFDYWGQGTLVTVSSASTKGPSVFPLAPSSKSTSGGTAALGCLVKDYFPEPVTVSWNSGALTSGVHTFPAVLQSSGLYSLSSVVTVPSSSLGTQTYICNVNHKPSNTKVDKKVEPKSCDKTHTCPPCPAPEWLGGPSVFLFPPKPKDTLMISRTPEVTCVVVDVSDEDPEVKFNWYVDGVEVHNAKTKPREEQYNSTYRVVSVLTVLHQDWLNGKEYKCKVSNKAYPAPIEKTISKAKGQPREPQVYTLPPSREEMTKNQVSLTCLVKGFYPSDIAVEWESNGQPENNYKTTPPVLDSDGSFFLYSKLTVDKSRWQQGNVFSCSVMHEALHNHYTQKSLSLSPGK
light: B1 light
notes: as for B1
B4: S239D/K326D/L328Y (antibody, human IgG1, kappa)
heavy: B3 heavy with W238L, S243D, D272H, K330D
light: B1 light
notes: as for B1
B5: H268D/A327D/L328Y (antibody, human IgG1, kappa)
heavy: B3 heavy with W238L, A331D
light: B1 light
notes: as for B1
B6: S239D/S267A/L328Y (antibody, human IgG1, kappa)
heavy: B3 heavy with W238L, S243D, S271A, D272H
light: B1 light
notes: as for B1
B7: S239D/L328Y/I332E (antibody, human IgG1, kappa)
heavy: B3 heavy with W238L, S243D, D272H, I336E
light: B1 light
notes: as for B1
B8: L234W/S239E/S267E (antibody, human IgG1, kappa)
heavy: B3 heavy with S243E, S271E, D272H, Y332L
light: B1 light
notes: as for B1
B9: S239D/L328F/I332E (antibody, human IgG1, kappa)
heavy: B3 heavy with W238L, S243D, D272H, Y332F, I336E
light: B1 light
notes: as for B1
B10: S298L (antibody, human IgG1, kappa)
heavy: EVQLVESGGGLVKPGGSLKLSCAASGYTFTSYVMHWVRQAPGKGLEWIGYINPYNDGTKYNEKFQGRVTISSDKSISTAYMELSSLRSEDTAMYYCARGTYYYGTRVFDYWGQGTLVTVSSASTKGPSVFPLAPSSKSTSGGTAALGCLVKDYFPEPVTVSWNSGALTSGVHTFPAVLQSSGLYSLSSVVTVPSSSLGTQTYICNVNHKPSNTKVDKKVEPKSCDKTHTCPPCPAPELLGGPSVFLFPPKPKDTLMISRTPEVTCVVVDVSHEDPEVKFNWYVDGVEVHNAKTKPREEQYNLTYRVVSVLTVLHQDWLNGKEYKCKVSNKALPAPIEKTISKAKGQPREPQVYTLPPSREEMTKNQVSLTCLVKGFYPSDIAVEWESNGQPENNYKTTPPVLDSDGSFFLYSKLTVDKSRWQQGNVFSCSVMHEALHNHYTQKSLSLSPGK
light: B1 light
notes: as for B2
B11: S239D/L328Y (antibody, human IgG1, kappa)
heavy: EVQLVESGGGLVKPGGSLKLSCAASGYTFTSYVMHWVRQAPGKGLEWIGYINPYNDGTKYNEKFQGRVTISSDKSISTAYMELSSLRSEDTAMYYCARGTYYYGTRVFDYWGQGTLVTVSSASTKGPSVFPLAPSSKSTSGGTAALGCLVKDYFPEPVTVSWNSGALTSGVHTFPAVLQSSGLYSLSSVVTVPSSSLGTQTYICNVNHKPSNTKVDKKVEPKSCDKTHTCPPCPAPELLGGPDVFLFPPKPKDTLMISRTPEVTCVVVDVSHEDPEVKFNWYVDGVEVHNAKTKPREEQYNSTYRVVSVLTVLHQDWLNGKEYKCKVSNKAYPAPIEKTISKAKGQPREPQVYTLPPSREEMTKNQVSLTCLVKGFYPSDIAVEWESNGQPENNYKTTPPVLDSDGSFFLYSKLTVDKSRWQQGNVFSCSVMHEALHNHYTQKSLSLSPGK
light: B1 light
notes: as for B1
B12: H268D/L328Y (antibody, human IgG1, kappa)
heavy: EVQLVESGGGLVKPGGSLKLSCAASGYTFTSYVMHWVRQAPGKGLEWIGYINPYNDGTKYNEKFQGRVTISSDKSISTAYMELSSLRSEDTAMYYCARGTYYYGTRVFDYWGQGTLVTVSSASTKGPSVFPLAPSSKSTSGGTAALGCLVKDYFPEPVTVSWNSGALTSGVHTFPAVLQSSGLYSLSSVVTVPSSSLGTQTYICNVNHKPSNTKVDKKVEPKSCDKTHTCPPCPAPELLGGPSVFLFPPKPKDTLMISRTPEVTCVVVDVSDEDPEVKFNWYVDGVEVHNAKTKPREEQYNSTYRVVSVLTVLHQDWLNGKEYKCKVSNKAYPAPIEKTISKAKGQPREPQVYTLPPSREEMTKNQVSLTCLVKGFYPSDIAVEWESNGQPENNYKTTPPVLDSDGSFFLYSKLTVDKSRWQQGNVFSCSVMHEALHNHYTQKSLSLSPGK
light: B1 light
notes: as for B1
B13: S239D/S267E/I332E (antibody, human IgG1, kappa)
heavy: B3 heavy with W238L, S243D, S271E, D272H, Y332L, I336E
light: B1 light
notes: as for B1
B14: H268D/L328W/I332E (antibody, human IgG1, kappa)
heavy: B3 heavy with W238L, Y332W, I336E
light: B1 light
notes: as for B1
B15: S298M (antibody, human IgG1, kappa)
heavy: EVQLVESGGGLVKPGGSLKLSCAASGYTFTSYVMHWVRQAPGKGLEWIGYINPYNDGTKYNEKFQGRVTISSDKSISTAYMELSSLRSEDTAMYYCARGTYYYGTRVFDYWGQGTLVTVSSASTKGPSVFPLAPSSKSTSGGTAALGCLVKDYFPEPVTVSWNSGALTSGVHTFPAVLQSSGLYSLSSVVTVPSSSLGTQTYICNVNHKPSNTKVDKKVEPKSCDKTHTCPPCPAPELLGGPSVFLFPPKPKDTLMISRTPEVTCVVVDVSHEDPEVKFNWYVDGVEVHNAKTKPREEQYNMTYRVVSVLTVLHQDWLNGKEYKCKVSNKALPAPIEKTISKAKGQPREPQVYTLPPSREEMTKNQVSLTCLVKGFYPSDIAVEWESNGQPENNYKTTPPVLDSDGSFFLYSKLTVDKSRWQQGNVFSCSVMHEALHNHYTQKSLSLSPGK
light: B1 light
notes: as for B2

target: T1, human FcγRIIIa (158V), His- and GST-tagged (human, UniProt P08637 17-208); test: SPR
T1 construct: also called V158 FcγRIIIa; VIIIa; not shown: 6xHis and GST tags of the pTT5 vector
T1 sequence (P08637 17-208 F176V): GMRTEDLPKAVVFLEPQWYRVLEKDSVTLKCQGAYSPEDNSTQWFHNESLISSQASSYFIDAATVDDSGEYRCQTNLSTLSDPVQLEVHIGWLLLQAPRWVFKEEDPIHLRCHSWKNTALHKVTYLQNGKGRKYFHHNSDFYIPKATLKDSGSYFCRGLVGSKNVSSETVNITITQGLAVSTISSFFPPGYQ

| Binder | binding result | Kd [nM] |
| --- | --- | --- |
| B1 | no binding |  |
| B2 |  | 58400 |

target: T2, human FcγRI receptor protein (R&D Systems) (human, UniProt P12314 16-288); test: SPR
T2 construct: also called soluble FcγRI; solFcγRI
T2 sequence (P12314 16-288 limits assumed): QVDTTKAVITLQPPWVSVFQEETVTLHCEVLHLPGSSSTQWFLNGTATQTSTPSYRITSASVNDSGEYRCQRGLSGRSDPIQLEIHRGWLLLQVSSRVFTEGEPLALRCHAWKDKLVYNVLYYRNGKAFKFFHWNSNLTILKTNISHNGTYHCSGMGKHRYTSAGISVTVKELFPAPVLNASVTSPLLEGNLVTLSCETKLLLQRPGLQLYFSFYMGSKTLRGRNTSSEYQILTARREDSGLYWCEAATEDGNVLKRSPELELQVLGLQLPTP

| Binder | Fold vs WT IgG1 [fold] | Kd [nM] |
| --- | --- | --- |
| B1 | 0.101 | 3.25 |
| B2 |  | 0.452 |

target: T3, human FcγRIIb receptor protein (R&D Systems) (human, UniProt P31994 46-217); test: SPR
T3 construct: Bought protein injected over captured antibody in Biacore; also called CD32b
T3 sequence (looked up): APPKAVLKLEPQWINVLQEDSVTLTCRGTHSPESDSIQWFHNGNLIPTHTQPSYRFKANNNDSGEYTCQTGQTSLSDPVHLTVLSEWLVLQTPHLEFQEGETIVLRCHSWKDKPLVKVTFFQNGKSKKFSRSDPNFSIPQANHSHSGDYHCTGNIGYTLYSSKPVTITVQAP

| Binder | Fold vs WT IgG1 [fold] | Kd [nM] | binding result |
| --- | --- | --- | --- |
| B1 | 40.5 | 36.2 |  |
| B3 | 5.92 | 248 |  |
| B4 | 13 | 113 |  |
| B5 | 3.49 | 420 |  |
| B6 | 19.8 | 74.1 |  |
| B7 | 7.41 | 198 |  |
| B8 | 42.3 | 34.7 |  |
| B9 | 8.34 | 176 |  |
| B2 |  | 541 |  |
| B10 |  |  | no binding |
| B11 | 5.56 | 264 |  |
| B12 | 1.91 | 767 |  |
| B13 | 124 | 11.8 |  |
| B14 | 39.8 | 36.9 |  |
| B15 |  |  | no binding |

target: T4, human FcγRIIa (131R), His- and GST-tagged (human, UniProt P12318 34-217); test: SPR
T4 construct: Expressed in HEK293T cells, purified by nickel chromatography; also called R131 FcγRIIa; not shown: 6xHis and GST tags of the pTT5 vector
T4 sequence (looked up): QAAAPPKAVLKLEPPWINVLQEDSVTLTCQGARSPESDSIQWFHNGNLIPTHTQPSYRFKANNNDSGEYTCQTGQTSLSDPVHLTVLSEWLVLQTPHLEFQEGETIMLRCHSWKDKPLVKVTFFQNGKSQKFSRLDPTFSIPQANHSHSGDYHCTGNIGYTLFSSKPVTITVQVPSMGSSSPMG

| Binder | Fold vs WT IgG1 [fold] | Kd [nM] |
| --- | --- | --- |
| B1 | 61.5 | 14 |
| B8 | 98.5 | 8.72 |
| B2 |  | 166 |

target: T5, mFcγRIIb (Mus musculus, UniProt P08101); test: SPR
T5 construct: extracellular region, C-terminal His- and GST-tag; also called mouse FcγRII
T5 sequence (receptor extracellular region, looked up): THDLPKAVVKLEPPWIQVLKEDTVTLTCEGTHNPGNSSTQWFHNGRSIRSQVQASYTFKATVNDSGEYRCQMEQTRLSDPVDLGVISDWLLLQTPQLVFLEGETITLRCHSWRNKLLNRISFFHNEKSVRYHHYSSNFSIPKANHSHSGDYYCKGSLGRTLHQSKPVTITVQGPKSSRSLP

| Binder | Fold vs WT IgG1 (Kd) [fold] |
| --- | --- |
| B3 | 5.92 |
| B4 | 131 |
| B5 | 18.7 |
| B6 | 46.5 |
| B7 | 1.7 |
| B8 | 0.761 |
| B9 | 2.09 |
| B10 | 0.208 |
| B11 | 11.5 |
| B12 | 2.79 |
| B13 | 1 |
| B14 | 4.26 |
| B15 | 0.549 |

target: T6, cynoFcγRIIb (Macaca fascicularis, UniProt A0A140HDP4); test: SPR
T6 construct: extracellular region, C-terminal His- and GST-tag; also called cynomolgus monkey FcγRIIb
T6 sequence (receptor extracellular region): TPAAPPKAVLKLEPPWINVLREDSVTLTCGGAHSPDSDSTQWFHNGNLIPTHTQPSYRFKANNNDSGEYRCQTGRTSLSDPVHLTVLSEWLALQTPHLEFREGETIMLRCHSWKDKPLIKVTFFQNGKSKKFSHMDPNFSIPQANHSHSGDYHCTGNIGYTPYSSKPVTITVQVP

| Binder | Fold vs WT IgG1 (Kd) [fold] |
| --- | --- |
| B3 | 4.63 |
| B4 | 10.2 |
| B5 | 3.58 |
| B6 | 6.46 |
| B7 | 5.12 |
| B8 | 2.25 |
| B9 | 3.09 |
| B10 | 0.04 |
| B11 | 2.13 |
| B12 | 2.92 |
| B13 | 10 |
| B14 | 7.46 |
| B15 | 2.85 |
